Assay results published in paper PMC4512625, “Critical role of the SPAK protein kinase CCT domain in controlling blood pressure” (Human Molecular Genetics, 2015).

Target: T1, Lumio-Green-labelled RFXV-motif-possessing peptide derived from WNK4 (EP4543) (not fully specified; Lumio Green fluorophore conjugated to the N-terminal linker CCPGCCGGGG)
T1 construct: N-terminal linker required for conjugating to the Lumio Green fluorophore; stretch of WNK4 with the RFQV motif; also called WNK peptide; RFXV peptide; source: synthetic peptide (GL Biochem)
T1 peptide: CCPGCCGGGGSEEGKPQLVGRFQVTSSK
Experiment: fluorescence polarisation; SPAK protein titrated against 10 nM Lumio-Green-labelled peptide; 25°C; 50 mM Tris-HCl pH 7.5, 150 mM NaCl, 2 mM DTT; one-site-specific binding model
Conditions: both partners purified

fold reduction of binding against wild-type SPAK 452-547: ~100 fold
B1: human SPAK 452-547 with L491A (domain or fragment)
chain: not shown
notes: SPAK, human, residues 452-547 (end), the CCT domain, L491A; pGEX-6P-1 construct; GST-SPAK proteins were eluted with 20 mM glutathione and no cleavage of GST is described, so GST was probably still on the protein; also called SPAK CCT domain L491A (equivalent to L502 in mouse); source: E. coli BL21, purified (glutathione-Sepharose)
